Test results as given in article PMC6063412, “Development of monoclonal anti-PDGF-CC antibodies as tools for investigating human tissue expression and for blocking PDGF-CC induced PDGFRα signalling in vivo” (PLoS ONE, 2018).
Numbering of substitutions follows the chain as printed.

B1: monoclonal anti-PDGF-CC antibody 6B3 (antibody, V domains shown)
VH: QVQLQQSGVEVARPGASVKLSCKASGYTFRSYGITWVRQRTGQGLEWIGEIYPRSGKTYYNEKFKGKATLTADTSSSTVYMELRSLTSEDSAVYFCAREGYGYDGGYFDYWGQGTTLTVSS
VL: DIVMTQSPSSLAMSVGQKVTMSCKSSQSLLNSRNQKNYLAWYQQKPGQSPKLLVYFASTRESGVPDRFTGSGSGTDFTLTISSVQAEDLAVYYCQQHYSTPLTFGAGTKLELK
notes: VH CDR1 (Kabat combined with Chothia); VH CDR2; VH CDR3; VL CDR1 (Kabat combined with Chothia); VL CDR2; VL CDR3; Mouse IgG2a, kappa; Only the CDRs are printed; frameworks are not; also called mAb 6B3; clone 6B3; source: mouse hybridoma; culture supernatant, or IgG purified (HiTrap-Protein G)
B2: monoclonal anti-PDGF-CC antibody 11F5 (antibody, V domains shown)
VH: QVQLQQSGAELARPGASVKLSCKASGYIFISYGISWVKQRTGQGLEWIGEIYPRSGKTYYNEKFKDKAALTADKSSSIAYMELRSLTSEDSAVYFCAREGYGYDGGYFDYWGQGTILTVSS
VL: B1 VL with T20A, M21V, R33S, E61D
notes: VH CDR1 (Kabat combined with Chothia); VH CDR2; VH CDR3; VL CDR1 (Kabat combined with Chothia); VL CDR2; VL CDR3; Mouse IgG2a, kappa; Only the CDRs are printed; frameworks are not; also called clone 11F5; source: mouse hybridoma; culture supernatant, or IgG purified (HiTrap-Protein G)
B3: monoclonal anti-PDGF-CC antibody 19C7 (antibody, V domains shown)
VH: B1 VH
VL: B1 VL
notes: VH CDR1 (Kabat combined with Chothia); VH CDR2; VH CDR3; VL CDR1 (Kabat combined with Chothia); VL CDR2; VL CDR3; Mouse IgG2a, kappa; CDRs identical to those of 6B3; also called clone 19C7; source: mouse hybridoma; culture supernatant, or IgG purified (HiTrap-Protein G)

Key:
[1] = target: T1, recombinant human PDGF-CC core domain protein (activated PDGF-CC, growth factor domain) (human, UniProt Q9NRA1); test: immunoblot; recombinant PDGF proteins run reduced and non-reduced, blotted and probed with murine mAb IgG; conditions: both partners purified
T1 construct: platelet-derived growth factor C, human, core domain (growth factor domain, GFD) released from the N-terminal CUB domain; also called hPCc; active PDGF-CC

[2] = target: T2, human latent full-length PDGF-CC (Homo sapiens, UniProt Q9NRA1); test: as above; conditions: both partners purified
T2 construct: platelet-derived growth factor C, human, latent full-length form with the CUB domain; also called hPCf; latent PDGF-CC

human PDGF-DD [3] = target: T3, human PDGF-DD (Homo sapiens, UniProt Q9GZP0); test: as above; conditions: both partners purified
PDGF-AA [4] = target: T4, PDGF-AA (UniProt P04085); test: ELISA; 96-well plate coated with PDGF-AA, PDGF-BB, PDGF-CC or PDGF-DD; 6B3 applied (methods: hybridoma supernatant in dilution series), anti-mouse IgG-AP, absorbance at 405 nm; conditions: one partner purified
T4 construct: platelet-derived growth factor A chain homodimer

PDGF-BB [5] = target: T5, PDGF-BB (UniProt P01127); test: as above; conditions: one partner purified
T5 construct: platelet-derived growth factor B chain homodimer

[6] = target: T6, endogenous human PDGF-CC in A549 cells and placental tissue (Homo sapiens (endogenous, A549 and …, UniProt Q9NRA1)); test: immunostaining of cells or tissue; paraffin-embedded sections of A549 cells and human placenta, citric acid antigen retrieval, 6B3 at 1.5 μg/ml, anti-mouse-HRP and DAB; with or without 1 h pre-incubation of 6B3 with 6.7 X excess PDGF-CC His6 (10 μg/ml); conditions: one partner purified
T6 construct: platelet-derived growth factor C, endogenous; source: endogenous, paraffin-embedded sections of the A549 cell line and human placental tissue

human PDGF-DD [7] = target: T3, human PDGF-DD; test: ELISA; data not shown; as the 6B3 ELISA on coated PDGF-AA, PDGF-BB, PDGF-CC and PDGF-DD, with other clones; conditions: one partner purified
PDGF-AA [8] = target: T4, PDGF-AA; test: as above; conditions: one partner purified
PDGF-BB [9] = target: T5, PDGF-BB; test: as above; conditions: one partner purified

T5 sequence (P01127 82-190): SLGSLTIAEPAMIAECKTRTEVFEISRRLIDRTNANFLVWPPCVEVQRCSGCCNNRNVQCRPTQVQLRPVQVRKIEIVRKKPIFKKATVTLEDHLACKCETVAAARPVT
T1 sequence (Q9NRA1 230-345): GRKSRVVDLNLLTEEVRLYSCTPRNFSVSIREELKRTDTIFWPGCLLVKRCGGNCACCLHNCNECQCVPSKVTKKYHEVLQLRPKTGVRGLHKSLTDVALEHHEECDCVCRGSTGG
T6 sequence (Q9NRA1 23-345): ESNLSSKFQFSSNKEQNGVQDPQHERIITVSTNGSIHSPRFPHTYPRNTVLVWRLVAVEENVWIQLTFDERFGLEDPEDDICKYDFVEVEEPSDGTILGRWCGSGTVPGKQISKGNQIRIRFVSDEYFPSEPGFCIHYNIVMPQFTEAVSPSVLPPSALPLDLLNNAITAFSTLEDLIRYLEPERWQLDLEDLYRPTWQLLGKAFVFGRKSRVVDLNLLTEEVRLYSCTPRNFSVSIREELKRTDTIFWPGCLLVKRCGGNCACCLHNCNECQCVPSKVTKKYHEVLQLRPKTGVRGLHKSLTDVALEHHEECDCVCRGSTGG
T2 sequence (Q9NRA1 23-345): as above

Binder | binding result [1] | binding result [2] | binding result (human PDGF-DD [3]) | binding result (PDGF-AA [4]) | binding result (PDGF-BB [5]) | binding result [6] | binding result (human PDGF-DD [7]) | binding result (PDGF-AA [8]) | binding result (PDGF-BB [9])
B1 | binds | binds | no binding | no binding | no binding | binds |  |  | 
B2 |  |  |  |  |  |  | no binding | no binding | no binding
B3 |  |  |  |  |  |  | no binding | no binding | no binding
